Data published in the Immune Epitope Database (IEDB).

Tests used:
Assay in all cases: IEDB peptide-MHC binding, purified MHC/competitive/radioactivity; filed as Kd, often an IC50 or EC50 that approximates it; ≥ and ≤ were set here for values at or beyond the usual limits of such assays
HLA-A*03:01 = target: HLA-A*03:01
HLA-A*11:01 = target: HLA-A*11:01
HLA-A*31:01 = target: HLA-A*31:01
HLA-A*33:01 = target: HLA-A*33:01
HLA-A*68:01 = target: HLA-A*68:01
HLA-A*02:03 = target: HLA-A*02:03
[1] = source organism: Vaccinia virus WR
[2] = source organism: SARS coronavirus Tor2
[3] = source organism: Mammarenavirus whitewaterense
[4] = source organism: Triticum aestivum
[5] = source organism: Lassa virus Josiah
[6] = source organism: Mammarenavirus guanaritoense
[7] = source organism: Mammarenavirus machupoense
[8] = source organism: Mammarenavirus brazilense
[9] = source organism: Vaccinia virus Copenhagen

Sequence | Kd (HLA-A*03:01; [1]) [µM] | Kd (HLA-A*11:01; [1]) [µM] | Kd (HLA-A*31:01; [1]) [µM] | Kd (HLA-A*33:01; [1]) [µM] | Kd (HLA-A*68:01; [1]) [µM] | other results
KTNDINVRR | 0.112 | 0.0301 | 0.00224 | 16.7 | 0.0121 | 
YTYDRVDIYY | 0.0974 | 0.00241 | 11 | 1.17 | 0.00096 | 
NIKPSKENR | 7.39 | ≥ 30.4 | 0.545 | 0.338 | 0.0105 | 
VVYRAFDIY |  |  |  |  |  | Kd (HLA-A*03:01; [2]): 0.163 µM; Kd (HLA-A*11:01; [2]): 0.149 µM; Kd (HLA-A*31:01; [2]): 7.86 µM; Kd (HLA-A*33:01; [2]): ≥ 25.1 µM; Kd (HLA-A*68:01; [2]): 3.34 µM
TIANSNIIK | 0.655 | 0.0368 | 8.98 | 10.9 | 0.0731 | 
ISELSRLRY | 6.57 | 10.8 | 5.37 | ≥ 77.7 | ≥ 22.7 | 
ELTTVFIKY | 0.269 | 6.69 | 1.82 | 5.45 | 0.855 | 
SFKDQSKYCH |  |  |  |  |  | Kd (HLA-A*03:01; [3]): ≥ 70 µM; Kd (HLA-A*11:01; [3]): ≥ 69.7 µM; Kd (HLA-A*31:01; [3]): 1.16 µM; Kd (HLA-A*33:01; [3]): 8.63 µM; Kd (HLA-A*68:01; [3]): ≥ 70.1 µM
HAIILHQQQK |  |  |  |  |  | Kd (HLA-A*03:01; [4]): 1.27 µM; Kd (HLA-A*11:01; [4]): 1.13 µM; Kd (HLA-A*31:01; [4]): 11 µM; Kd (HLA-A*33:01; [4]): ≥ 44.4 µM; Kd (HLA-A*68:01; [4]): 0.0104 µM
TTGRTSLPK |  |  |  |  |  | Kd (HLA-A*03:01; [5]): 5.24 µM; Kd (HLA-A*11:01; [5]): 1.76 µM; Kd (HLA-A*31:01; [5]): 18 µM; Kd (HLA-A*33:01; [5]): 14.5 µM; Kd (HLA-A*68:01; [5]): 13.3 µM
YLSDSDNIK | 2.6 | 8.57 | ≥ 77.9 | ≥ 50.7 | 1.12 | 
LIIYYQLAGY | 0.137 | 5.12 | ≥ 25.7 | ≥ 67.6 | 8 | 
SAGAGVLDK | 0.243 | 0.316 | ≥ 26.6 | ≥ 77.7 | 3.35 | 
PCPLPHRLDR |  |  |  |  |  | Kd (HLA-A*03:01; [6]): ≥ 70 µM; Kd (HLA-A*11:01; [6]): ≥ 69.7 µM; Kd (HLA-A*31:01; [6]): 2.94 µM; Kd (HLA-A*33:01; [6]): ≥ 21.8 µM; Kd (HLA-A*68:01; [6]): ≥ 31.1 µM
DVSLIIEYK | 16.1 | 0.152 | 0.0722 | 0.111 | 0.00357 | 
NLKYTVIITV |  |  |  |  |  | Kd (HLA-A*02:03; source organism: Dengue virus 3 Martinique/1243/1999): 0.00929 µM
EQLQLLMPLK |  |  |  |  |  | Kd (HLA-A*03:01; [2]): 1.2 µM; Kd (HLA-A*11:01; [2]): 0.15 µM; Kd (HLA-A*31:01; [2]): 2.94 µM; Kd (HLA-A*33:01; [2]): 2.37 µM; Kd (HLA-A*68:01; [2]): 1.79 µM
GLCAHILLY | 0.014 | 0.0375 | 18 | 8.36 | 3.2 | 
RLASMAICSA |  |  |  |  |  | Kd (HLA-A*02:03; source organism: Dengue virus 4 Philippines/H241/1956): 0.0245 µM
TVVRDFENY | ≥ 63 | 1.21 | ≥ 77.9 | ≥ 77.7 | 1.1 | 
TSSTCMMCYK |  |  |  |  |  | Kd (HLA-A*03:01; [2]): 0.0229 µM; Kd (HLA-A*11:01; [2]): 0.00117 µM; Kd (HLA-A*31:01; [2]): 0.0851 µM; Kd (HLA-A*33:01; [2]): 0.441 µM; Kd (HLA-A*68:01; [2]): 0.00493 µM
NYSKYWYLNH |  |  |  |  |  | Kd (HLA-A*03:01; [5]): ≥ 70 µM; Kd (HLA-A*11:01; [5]): ≥ 21.8 µM; Kd (HLA-A*31:01; [5]): 1.48 µM; Kd (HLA-A*33:01; [5]): 0.863 µM; Kd (HLA-A*68:01; [5]): ≥ 70.1 µM
EKFGHFCKYH |  |  |  |  |  | Kd (HLA-A*03:01; [7]): ≥ 70 µM; Kd (HLA-A*11:01; [7]): ≥ 69.7 µM; Kd (HLA-A*31:01; [7]): ≥ 32.8 µM; Kd (HLA-A*33:01; [7]): ≥ 70 µM; Kd (HLA-A*68:01; [7]): ≥ 70.1 µM
MVNHSTYYVH |  |  |  |  |  | Kd (HLA-A*03:01; [8]): 10.1 µM; Kd (HLA-A*11:01; [8]): 6.28 µM; Kd (HLA-A*31:01; [8]): 0.544 µM; Kd (HLA-A*33:01; [8]): 3.02 µM; Kd (HLA-A*68:01; [8]): 0.391 µM
LLNVTYNIK |  |  |  |  |  | Kd (HLA-A*03:01; [9]): 7.7 µM; Kd (HLA-A*11:01; [9]): 4.83 µM; Kd (HLA-A*31:01; [9]): ≥ 77.9 µM; Kd (HLA-A*33:01; [9]): ≥ 77.7 µM; Kd (HLA-A*68:01; [9]): 11.3 µM
LSCIRNASK | 0.484 | 0.5 | 0.3 | 0.784 | 0.276 | 
YIYSEIKQGR | 1.65 | 11.6 | 0.0165 | 0.853 | 0.00639 | 
GSFQEFRSNH |  |  |  |  |  | Kd (HLA-A*03:01; [8]): ≥ 28.7 µM; Kd (HLA-A*11:01; [8]): 7.13 µM; Kd (HLA-A*31:01; [8]): 1.52 µM; Kd (HLA-A*33:01; [8]): ≥ 45.2 µM; Kd (HLA-A*68:01; [8]): ≥ 70.1 µM
AAYYFMKFR |  |  |  |  |  | Kd (HLA-A*03:01; [2]): 0.124 µM; Kd (HLA-A*11:01; [2]): 0.0472 µM; Kd (HLA-A*31:01; [2]): 0.00123 µM; Kd (HLA-A*33:01; [2]): 0.117 µM; Kd (HLA-A*68:01; [2]): 0.0154 µM
